Experiments:
Experiment in all cases: fluorescence polarization
[1] = biological target: TRAF7-pY275mod
[2] = biological target: EGFR-pY978
[3] = biological target: EGFR-pY1110
[4] = biological target: RSKL-pY423
[5] = biological target: MidT-pY324
[6] = biological target: VEGFR1-pY1213mod
[7] = biological target: SIG11-pY668

B1: S10A (designed binder)
chain: MKIEEHHHHHHSSGRENLYFQGGAAQPAAPVDSIQAEEWYFGKLGRKDAERQLLSFGNPRGTFLIRESETTKGAYALSIRDWDDMKGDHVKHYKIRKLDNGGYYITTRAQFETLQQLVQHYSERAAGLSSRLVVPSHKGAAA
Kd [1]: 1300 nM
Kd [2]: 1100 nM
Kd [3]: 13000 nM
Kd [4]: 2500 nM
Kd [5]: 120 nM
Kd [6]: 5800 nM
Kd [7]: 48 nM

B2: T7S S10A K15L (designed binder)
chain: MKIEEHHHHHHSSGRENLYFQGGAAQPAAPVDSIQAEEWYFGKLGRKDAERQLLSFGNPRGTFLIRESESTKGAYALSIRDWDDMKGDHVKHYLIRKLDNGGYYITTRAQFETLQQLVQHYSERAAGLSSRLVVPSHKGAAA
Kd [1]: 300 nM
Kd [2]: 210 nM
Kd [3]: 1600 nM
Kd [4]: 1500 nM
Kd [5]: 49 nM
Kd [6]: 640 nM
Kd [7]: 71 nM

B3: none (wild-type) (other)
chain: MKIEEHHHHHHSSGRENLYFQGGAAQPAAPVDSIQAEEWYFGKLGRKDAERQLLSFGNPRGTFLIRESETTKGAYSLSIRDWDDMKGDHVKHYKIRKLDNGGYYITTRAQFETLQQLVQHYSERAAGLSSRLVVPSHKGAAA
Kd [1]: 6000 nM
Kd [3]: 26000 nM
Kd [4]: 12000 nM
Kd [5]: 490 nM
Kd [7]: 430 nM

B4: T8I S10A K15L (designed binder)
chain: MKIEEHHHHHHSSGRENLYFQGGAAQPAAPVDSIQAEEWYFGKLGRKDAERQLLSFGNPRGTFLIRESETIKGAYALSIRDWDDMKGDHVKHYLIRKLDNGGYYITTRAQFETLQQLVQHYSERAAGLSSRLVVPSHKGAAA
Kd [1]: 330 nM
Kd [2]: 32 nM
Kd [3]: 700 nM
Kd [4]: 190 nM
Kd [5]: 43 nM
Kd [6]: 180 nM
Kd [7]: 120 nM

B5: T8V S10A K15I (designed binder)
chain: MKIEEHHHHHHSSGRENLYFQGGAAQPAAPVDSIQAEEWYFGKLGRKDAERQLLSFGNPRGTFLIRESETVKGAYALSIRDWDDMKGDHVKHYIIRKLDNGGYYITTRAQFETLQQLVQHYSERAAGLSSRLVVPSHKGAAA
Kd [1]: 450 nM
Kd [2]: 130 nM
Kd [3]: 1400 nM
Kd [4]: 880 nM
Kd [5]: 98 nM
Kd [6]: 410 nM
Kd [7]: 190 nM

B6: ΔT8 S10A K15L (designed binder)
chain: MKIEEHHHHHHSSGRENLYFQGGAAQPAAPVDSIQAEEWYFGKLGRKDAERQLLSFGNPRGTFLIRESETTKGAYSLSIRDWDDMKGDHVKHYKIRKLDNGGYYITTRAQFETLQQLVQHYSERAAGLSSRLVVPSHKGAAA
Kd [1]: 2700 nM
Kd [3]: 15000 nM
Kd [4]: 6100 nM
Kd [5]: 260 nM
Kd [7]: 550 nM

B7: K2E T8V S10A K15I (designed binder)
chain: MKIEEHHHHHHSSGRENLYFQGGAAQPAAPVDSIQAEEWYFGKLGREDAERQLLSFGNPRGTFLIRESETVKGAYALSIRDWDDMKGDHVKHYIIRKLDNGGYYITTRAQFETLQQLVQHYSERAAGLSSRLVVPSHKGAAA
Kd [1]: 990 nM
Kd [2]: 170 nM
Kd [3]: 3800 nM
Kd [4]: 2500 nM
Kd [5]: 280 nM
Kd [6]: 580 nM
Kd [7]: 900 nM

B8: K15L (designed binder)
chain: MKIEEHHHHHHSSGRENLYFQGGAAQPAAPVDSIQAEEWYFGKLGRKDAERQLLSFGNPRGTFLIRESETTKGAYSLSIRDWDDMKGDHVKHYLIRKLDNGGYYITTRAQFETLQQLVQHYSERAAGLSSRLVVPSHKGAAA
Kd [1]: 2200 nM
Kd [2]: 670 nM
Kd [3]: 5800 nM
Kd [4]: 3300 nM
Kd [5]: 420 nM
Kd [6]: 2800 nM
Kd [7]: 450 nM

B9: S10V (designed binder)
chain: MKIEEHHHHHHSSGRENLYFQGGAAQPAAPVDSIQAEEWYFGKLGRKDAERQLLSFGNPRGTFLIRESETTKGAYVLSIRDWDDMKGDHVKHYKIRKLDNGGYYITTRAQFETLQQLVQHYSERAAGLSSRLVVPSHKGAAA
Kd [1]: 4500 nM
Kd [2]: 5500 nM
Kd [3]: 34000 nM
Kd [4]: 6500 nM
Kd [5]: 360 nM
Kd [6]: 9000 nM
Kd [7]: 660 nM

B10: T8V K15L (designed binder)
chain: MKIEEHHHHHHSSGRENLYFQGGAAQPAAPVDSIQAEEWYFGKLGRKDAERQLLSFGNPRGTFLIRESETVKGAYSLSIRDWDDMKGDHVKHYLIRKLDNGGYYITTRAQFETLQQLVQHYSERAAGLSSRLVVPSHKGAAA
Kd [1]: 450 nM
Kd [2]: 120 nM
Kd [3]: 1700 nM
Kd [4]: 530 nM
Kd [5]: 140 nM
Kd [6]: 440 nM
Kd [7]: 150 nM

B11: T8V S10A K15L (designed binder)
chain: MKIEEHHHHHHSSGRENLYFQGGAAQPAAPVDSIQAEEWYFGKLGRKDAERQLLSFGNPRGTFLIRESETVKGAYALSIRDWDDMKGDHVKHYLIRKLDNGGYYITTRAQFETLQQLVQHYSERAAGLSSRLVVPSHKGAAA
Kd [1]: 60 nM
Kd [2]: 8.5 nM
Kd [3]: 340 nM
Kd [4]: 77 nM
Kd [5]: 11 nM
Kd [6]: 58 nM
Kd [7]: 26 nM

B12: S10V K15L (designed binder)
chain: MKIEEHHHHHHSSGRENLYFQGGAAQPAAPVDSIQAEEWYFGKLGRKDAERQLLSFGNPRGTFLIRESETTKGAYVLSIRDWDDMKGDHVKHYLIRKLDNGGYYITTRAQFETLQQLVQHYSERAAGLSSRLVVPSHKGAAA
Kd [1]: 2100 nM
Kd [2]: 430 nM
Kd [3]: 4400 nM
Kd [4]: 1500 nM
Kd [5]: 94 nM
Kd [6]: 1600 nM
Kd [7]: 320 nM

B13: T8V (designed binder)
chain: MKIEEHHHHHHSSGRENLYFQGGAAQPAAPVDSIQAEEWYFGKLGRKDAERQLLSFGNPRGTFLIRESETVKGAYSLSIRDWDDMKGDHVKHYKIRKLDNGGYYITTRAQFETLQQLVQHYSERAAGLSSRLVVPSHKGAAA
Kd [1]: 5800 nM
Kd [2]: 2400 nM
Kd [3]: 41000 nM
Kd [4]: 14000 nM
Kd [5]: 370 nM
Kd [6]: 24000 nM
Kd [7]: 1200 nM

B14: S10A K15L (designed binder)
chain: MKIEEHHHHHHSSGRENLYFQGGAAQPAAPVDSIQAEEWYFGKLGRKDAERQLLSFGNPRGTFLIRESETTKGAYALSIRDWDDMKGDHVKHYLIRKLDNGGYYITTRAQFETLQQLVQHYSERAAGLSSRLVVPSHKGAAA
Kd [1]: 480 nM
Kd [2]: 130 nM
Kd [3]: 2000 nM
Kd [4]: 1600 nM
Kd [5]: 110 nM
Kd [6]: 400 nM
Kd [7]: 120 nM
